Laboratory results taken from publication PMC3365654 (The Febs Journal, 2012).

Biological target: wildtype full-length Grb2 (human, UniProt P62993 1-217)
Test: ITC

| Kd [µM] | dH [kcal/mol] | stoichiometry N | Binder |
| --- | --- | --- | --- |
| 7.21 | -34.5 | 1.94 | wildtype proline-rich (PR) domain of Gab1 (domain or fragment, human, UniProt Q13480 331-530, looked up) TSKLDTIPDIPPPRPPKPHPAHDRSPVETCSIPRTASDTDSSYCIPTAGMSPSRSNTISTVDLNKLRKDASSQDCYDIPRAFPSDRSSSLEGFHNHFKVKNVLTVGSVSSEELDENYVPMNPNSPPRQHSSSFTEPIQEANYVPMTPGTFDFSSFGMQVPPPAHMGFRSSPKTPPRRPVPVADCEPPPVDRNLKPDRKVK |
| 20.3 | -13.2 | 1.02 | PR domain of Gab1 with the G2 motif mutated (domain or fragment, human, UniProt Q13480 331-530, looked up) TSKLDTIPDIPPPRPPKPHPAHDRSPVETCSIPRTASDTDSSYCIPTAGMSPSRSNTISTVDLNKLRKDASSQDCYDIPRAFPSDRSSSLEGFHNHFKVKNVLTVGSVSSEELDENYVPMNPNSPPRQHSSSFTEPIQEANYVPMTPGTFDFSSFGMQVPPPAHMGFRSSPKTPPRRPVPVADCEPPPVDANLAPDRKVK |
| 2.24 | -23.4 | 1.07 | PR domain of Gab1 with the G1 motif mutated (domain or fragment, human, UniProt Q13480 331-530, looked up) TSKLDTIPDIPPPAPPAPHPAHDRSPVETCSIPRTASDTDSSYCIPTAGMSPSRSNTISTVDLNKLRKDASSQDCYDIPRAFPSDRSSSLEGFHNHFKVKNVLTVGSVSSEELDENYVPMNPNSPPRQHSSSFTEPIQEANYVPMTPGTFDFSSFGMQVPPPAHMGFRSSPKTPPRRPVPVADCEPPPVDRNLKPDRKVK |
